# Reference: the supplement of paper PMC9112550, “Optimization of the antimicrobial peptide Bac7 by deep mutational scanning” (BMC Biology, 2022)
# Test system: Escherichia coli TOP10
# Experiment: shrunken log2 fold change of peptide-encoding DNA abundance (4.5 h post-induction vs induction); higher = less antimicrobial activity (less host growth inhibition)
# Conditions: time post-induction: 4.5 h; library: site-saturation at positions 5, 18, 19, 20
# 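Also: peptides expressed intracellularly from a pBAD plasmid library in pooled LB shake-flask culture, induced with 0.3% L-arabinose, DNA abundance read by NGS, three biological replicates, DESeq2 with apeglm shrinkage.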
row,Sequence,shrunken log2 fold change
1,RRIRWRPPRLPRPRPRPCWKPRP,-0.00256
2,RRIRWRPPRLPRPRPRPDAEPRP,1.89
3,RRIRWRPPRLPRPRPRPDATPRP,2.57
4,RRIRWRPPRLPRPRPRPDAVPRP,0.4
5,RRIRWRPPRLPRPRPRPDDLPRP,-0.024
6,RRIRWRPPRLPRPRPRPDDVPRP,0.0399
7,RRIRWRPPRLPRPRPRPDDWPRP,0.288
8,RRIRWRPPRLPRPRPRPDDYPRP,0.0299
9,RRIRWRPPRLPRPRPRPDGNPRP,0.276
10,RRIRWRPPRLPRPRPRPDHGPRP,-0.104
11,RRIRWRPPRLPRPRPRPDHQPRP,-0.197
12,RRIRWRPPRLPRPRPRPDIFPRP,-0.029
13,RRIRWRPPRLPRPRPRPDKTPRP,-0.0185
14,RRIRWRPPRLPRPRPRPDLVPRP,0.0575
15,RRIRWRPPRLPRPRPRPDMLPRP,0.142
16,RRIRWRPPRLPRPRPRPDMVPRP,0.0298
17,RRIRWRPPRLPRPRPRPDNWPRP,0.104
18,RRIRWRPPRLPRPRPRPDPDPRP,0.545
19,RRIRWRPPRLPRPRPRPDQEPRP,-0.00154
20,RRIRWRPPRLPRPRPRPDRDPRP,0.0716
21,RRIRWRPPRLPRPRPRPDRKPRP,-0.0752
22,RRIRWRPPRLPRPRPRPDRSPRP,0.0405

row,Sequence,shrunken log2 fold change
1,RRIRWRPPRLPRPRPRPDTEPRP,0.14
2,RRIRWRPPRLPRPRPRPDTGPRP,-0.373
3,RRIRWRPPRLPRPRPRPDWDPRP,0.243
4,RRIRWRPPRLPRPRPRPDWSPRP,0.0189
5,RRIRWRPPRLPRPRPRPEADPRP,1.5
6,RRIRWRPPRLPRPRPRPECAPRP,0.852
7,RRIRWRPPRLPRPRPRPECVPRP,1.26
8,RRIRWRPPRLPRPRPRPEEYPRP,0.113
9,RRIRWRPPRLPRPRPRPEFDPRP,0.198
10,RRIRWRPPRLPRPRPRPEFYPRP,-0.129
11,RRIRWRPPRLPRPRPRPEGSPRP,0.754
12,RRIRWRPPRLPRPRPRPEHHPRP,-0.0625
13,RRIRWRPPRLPRPRPRPEHTPRP,0.489
14,RRIRWRPPRLPRPRPRPEMVPRP,-0.222
15,RRIRWRPPRLPRPRPRPENEPRP,0.194
16,RRIRWRPPRLPRPRPRPENPPRP,-0.0117
17,RRIRWRPPRLPRPRPRPENQPRP,0.353
18,RRIRWRPPRLPRPRPRPERAPRP,0.707
19,RRIRWRPPRLPRPRPRPERKPRP,-0.0287
20,RRIRWRPPRLPRPRPRPEVHPRP,-0.039
21,RRIRWRPPRLPRPRPRPEWAPRP,0.497
22,RRIRWRPPRLPRPRPRPEYDPRP,0.695

row,Sequence,shrunken log2 fold change
1,RRIRWRPPRLPRPRPRPEYFPRP,-0.0445
2,RRIRWRPPRLPRPRPRPEYNPRP,0.195
3,RRIRWRPPRLPRPRPRPEYSPRP,0.0675
4,RRIRWRPPRLPRPRPRPFAKPRP,0.382
5,RRIRWRPPRLPRPRPRPFASPRP,0.177
6,RRIRWRPPRLPRPRPRPFCLPRP,0.0169
7,RRIRWRPPRLPRPRPRPFDDPRP,-0.121
8,RRIRWRPPRLPRPRPRPFFLPRP,-0.0114
9,RRIRWRPPRLPRPRPRPFGEPRP,0.439
10,RRIRWRPPRLPRPRPRPFHLPRP,-0.818
11,RRIRWRPPRLPRPRPRPFIAPRP,-0.291
12,RRIRWRPPRLPRPRPRPFIPPRP,-1.15
13,RRIRWRPPRLPRPRPRPFKEPRP,-0.139
14,RRIRWRPPRLPRPRPRPFLYPRP,-0.0978
15,RRIRWRPPRLPRPRPRPFMHPRP,-0.153
16,RRIRWRPPRLPRPRPRPFNCPRP,-0.118
17,RRIRWRPPRLPRPRPRPFNHPRP,-0.405
18,RRIRWRPPRLPRPRPRPFNWPRP,-0.0369
19,RRIRWRPPRLPRPRPRPFPDPRP,0.116
20,RRIRWRPPRLPRPRPRPFPPPRP,-0.0255
21,RRIRWRPPRLPRPRPRPFQRPRP,0.00938
22,RRIRWRPPRLPRPRPRPFVAPRP,0.292

row,Sequence,shrunken log2 fold change
1,RRIRWRPPRLPRPRPRPFWFPRP,-0.119
2,RRIRWRPPRLPRPRPRPFYIPRP,-0.632
3,RRIRWRPPRLPRPRPRPFYQPRP,-0.0811
4,RRIRWRPPRLPRPRPRPGAHPRP,0.32
5,RRIRWRPPRLPRPRPRPGAMPRP,0.524
6,RRIRWRPPRLPRPRPRPGDYPRP,0.0468
7,RRIRWRPPRLPRPRPRPGEQPRP,0.0722
8,RRIRWRPPRLPRPRPRPGERPRP,0.303
9,RRIRWRPPRLPRPRPRPGEYPRP,0.147
10,RRIRWRPPRLPRPRPRPGFGPRP,0.651
11,RRIRWRPPRLPRPRPRPGFQPRP,0.127
12,RRIRWRPPRLPRPRPRPGGMPRP,0.286
13,RRIRWRPPRLPRPRPRPGHTPRP,0.0581
14,RRIRWRPPRLPRPRPRPGIFPRP,0.0995
15,RRIRWRPPRLPRPRPRPGINPRP,0.0653
16,RRIRWRPPRLPRPRPRPGITPRP,0.0178
17,RRIRWRPPRLPRPRPRPGLDPRP,0.601
18,RRIRWRPPRLPRPRPRPGLRPRP,0.53
19,RRIRWRPPRLPRPRPRPGMLPRP,-0.11
20,RRIRWRPPRLPRPRPRPGNDPRP,0.895
21,RRIRWRPPRLPRPRPRPGPEPRP,0.809
22,RRIRWRPPRLPRPRPRPGQIPRP,-0.0275

row,Sequence,shrunken log2 fold change
1,RRIRWRPPRLPRPRPRPGQNPRP,0.134
2,RRIRWRPPRLPRPRPRPGRQPRP,-0.00663
3,RRIRWRPPRLPRPRPRPGRRPRP,0.106
4,RRIRWRPPRLPRPRPRPGVAPRP,0.821
5,RRIRWRPPRLPRPRPRPGVEPRP,0.579
6,RRIRWRPPRLPRPRPRPGVQPRP,0.309
7,RRIRWRPPRLPRPRPRPGWFPRP,0.249
8,RRIRWRPPRLPRPRPRPGYTPRP,-0.13
9,RRIRWRPPRLPRPRPRPHALPRP,-0.118
10,RRIRWRPPRLPRPRPRPHATPRP,0.816
11,RRIRWRPPRLPRPRPRPHCCPRP,-0.124
12,RRIRWRPPRLPRPRPRPHCIPRP,-0.207
13,RRIRWRPPRLPRPRPRPHDVPRP,0.132
14,RRIRWRPPRLPRPRPRPHDWPRP,0.15
15,RRIRWRPPRLPRPRPRPHEMPRP,0.433
16,RRIRWRPPRLPRPRPRPHFRPRP,0.0695
17,RRIRWRPPRLPRPRPRPHGAPRP,0.0287
18,RRIRWRPPRLPRPRPRPHGTPRP,-0.137
19,RRIRWRPPRLPRPRPRPHIIPRP,-0.441
20,RRIRWRPPRLPRPRPRPHKHPRP,-0.117
21,RRIRWRPPRLPRPRPRPHLNPRP,0.0153
